Assay results as given in patent US20110076272A1, “THERAPEUTIC METHODS AND COMPOSITIONS” (priority 2009, published 2011).

What was measured:
[1] = test system: purified recombinant human LOXL2; test: Amplex Red assay of LOXL2 enzymatic activity; type: biochemical
Procedure: (§1) A mouse anti-human LOXL2 antibody (AB0023) was obtained by immunization with full-length LOXL2 protein and purified by SEC-HPLC (Tosoh TSKGEL G3000SWXL 7.8×300). Analytical size exclusion chromatography was used to assess antibody stability and purity. Purified AB0023 was run on SDS-PAGE Coomassie (Invitrogen BT 4-12% Gels) reducing and non-reducing gels to assess purity. Potency was examined by ELISA to determine Kd, and effect on LOXL2 enzymatic activity was determined using an Amplex Red Assay (Molecular Probes/Invitrogen, Carlsbad, Calif.). Antibody concentration was measured by absorbance at 280 nm using an Extinction Coefficient Abs 0.1% of 1.4. Identity was assayed by isoelectric focusing (Invitrogen pH 3-10 IEF Gels). For safety analysis, endotoxin levels were measured at a sensitivity range of 0.01-1 EU/ml (Charles River EndoSafe PTS).

LOXL2 = target: T1, LOXL2 (Homo sapiens, UniProt Q9Y4K0); test: Western blot analysis and ELISA of AB0023 specificity; type: binding
T1 sequence (Q9Y4K0 26-774): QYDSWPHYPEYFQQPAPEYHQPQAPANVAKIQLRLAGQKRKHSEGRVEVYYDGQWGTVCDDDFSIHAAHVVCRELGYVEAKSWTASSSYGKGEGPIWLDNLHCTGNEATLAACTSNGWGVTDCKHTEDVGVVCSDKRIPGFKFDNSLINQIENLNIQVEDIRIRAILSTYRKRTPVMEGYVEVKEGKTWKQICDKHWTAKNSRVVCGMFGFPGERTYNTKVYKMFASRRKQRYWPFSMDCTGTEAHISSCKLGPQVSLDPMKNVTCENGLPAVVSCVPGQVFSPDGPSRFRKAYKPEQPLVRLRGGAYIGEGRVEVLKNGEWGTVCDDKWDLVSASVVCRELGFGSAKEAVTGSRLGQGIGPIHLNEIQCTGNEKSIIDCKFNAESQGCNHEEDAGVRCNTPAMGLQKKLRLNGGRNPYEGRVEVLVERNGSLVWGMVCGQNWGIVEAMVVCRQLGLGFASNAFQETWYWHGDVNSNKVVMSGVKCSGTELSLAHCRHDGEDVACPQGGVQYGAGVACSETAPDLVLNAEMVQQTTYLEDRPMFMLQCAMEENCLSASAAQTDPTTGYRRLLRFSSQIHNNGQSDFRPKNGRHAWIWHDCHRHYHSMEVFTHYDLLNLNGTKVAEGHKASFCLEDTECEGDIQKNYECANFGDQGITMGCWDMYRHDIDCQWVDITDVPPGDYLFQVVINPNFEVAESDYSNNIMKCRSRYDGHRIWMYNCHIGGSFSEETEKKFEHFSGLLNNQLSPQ
Procedure: as §1

[2] = test system: Matrigel plug containing bFGF; test: In vivo Matrigel plug angiogenesis assay; set-up: species or system mouse; details: 30 mg/kg i.p. twice weekly
Procedure: Athymic female Ncr:Nu/Nu mice were injected subcutaneously in the flank with 0.5 ml high-concentration Matrigel (BD Biosciences, San Jose, Calif.) supplemented with 100 ng/ml FGF and 60 U heparin. Matrigel injections were conducted one week after initiation of treatments with antibodies). Antibodies (or PBST, as a control) were administered by intraperitoneal injection of 30 mg/kg twice weekly. Matrigel plugs were harvested 10 days after implantation by excising the plug together with attached skin, and were fixed in 10% neutral buffered formalin and embedded in paraffin. 5 um sections were cut and stained with hematoxylin and eosin, anti-CD31 or anti-CD34 antibodies to assess degree of vessel formation.

[3] = test system: CCl4-induced liver fibrosis; test: CCl4-induced liver fibrosis; type: in vivo, mouse; details: 30 mg/kg i.p. twice a week
Procedure: Male BALB/c mice (10-12 weeks old) were obtained from Aragen Biosciences (Morgan Hill, Calif.). Mice were distributed into 4 groups. Mice in 3 of the groups were injected with CCl4 (Sigma-Aldrich, St. Louis, Mo.), and mice in the remaining group were injected with saline.
CCl4 was intraperitoneally administered to mice at 1 ml/kg body weight (CCl4: mineral oil in 1:1 (v/v) ratio) twice weekly for 4 weeks. In the control group, 0.9% saline (saline:mineral oil in 1:1 (v/v) ratio) was administered intraperitoneally using the same dosing regimen.
In the CCl4-treated groups, the first group was treated with AB0023 (diluted in PBS/0.01% Tween-20), the second group was treated with pep4 M64 (diluted in […]) and the third group was treated with vehicle (PBST). Antibodies and vehicle were injected intraperioneally at a dose of 30 mg/kg twice a week. The treatment started a day prior to the first administration of CCl4 and continued until the end of the study. The study was terminated after 4 weeks of CCl4 and antibody administration. Mice were euthanized and sacrificed humanely and the livers were harvested 96 hours after completion of dosing. The livers were snap-frozen for histological and immunohistochemical analyses.
Ten fields (or areas or lobes) for each treatment regimen were randomly selected and stained with Sirius Red. The area used for scoring was 1.7 mm×1.3 mm and contained at least 8 portal triads.
Triads and areas of complete bridging fibrosis were counted. […] The percentages from 10 fields (per treatment) were averaged and standard error was calculated.
For each treatment, five fields were selected and stained with an anti-alpha-smooth muscle actin (aSMA) antibody. aSMA-positive signal in the porto-portal region (threshold area %) was analyzed by Metamorph (Molecular Devices, Downingtown, Pa.). aSMA-positive signal in sections from animals undergoing AB0023-treatment was compared to signal obtained in sections from animals that had been treated with vehicle (PBS).

[4] = test system: MDA-MB-435 established primary tumors; test: MDA-MB-435 established primary tumor xenograft model; type: in vivo, mouse; details: independent study; AB0023 5 mg/kg twice per week, BAPN 100 mg/kg daily
[5] = Repeat-dose tolerability in mice; details: 50 mg/kg twice per week for 14 weeks

B1: AB0023: mouse anti-human LOXL2 monoclonal antibody; heavy chain variable region SEQ ID NO:1, light chain variable region SEQ ID NO:2 (antibody, listed as Mus musculus, V domains shown)
VH: MEWSRVFIFLLSVTAGVHSQVQLQQSGAELVRPGTSVKVSCKASGYAFTYYLIEWVKQRPGQGLEWIGVINPGSGGTNYNEKFKGKATLTADKSSSTAYMQLSSLTSDDSAVYFCARNWMNFDYWGQGTTLTVSS
VL: MRCLAEFLGLLVLWIPGAIGDIVMTQAAPSVSVTPGESVSISCRSSKSLLHSNGNTYLYWFLQRPGQSPQFLIYRMSNLASGVPDRFSGSGSGTAFTLRISRVEAEDVGVYYCMQHLEYPYTFGGGTKLEIK
modifications: Heavy chain; Light chain
For B1, the “mode of inhibition of LOXL2” value [1] was “non-competitive allosteric inhibitors”, the “inhibition of LOXL2 enzymatic activity” value ([1]; in vitro) was “inhibits” and the “cross-reactivity with other lysyl oxidase-type enzymes” value (LOXL2) was “no cross-reactivity”. For the same molecule, the “CD31 positive cells in the matrigel plugs” value ([2]; p=0.0168) was “significant decrease”, the “reduction in average number of vessels in plugs versus vehicle” value ([2]; plugs at day 10, p=0.0319) was ~7 fold and the “aSMA positive myofibroblasts in porto-portal septa” value [3] was “substantial reduction”. The “mortality resulting from injection with CCl4 (survival)” value ([3]; AB0023 p=0.0029 log rank) was “prevented”, the “bridging fibrosis in livers” value ([3]; Sirius Red, AB0023 p=0.002, M64 p=0.127) was “significantly inhibited” and the “reduction in collagen production, Sirius red staining” value [4] was 47%. The “reduction in fibroblast activation, αSMA positivity” value [4] was > 90%, the “reduction in tumor vasculature, CD31 signal” value [4] was 52% and the “reduction in tumor volume after 46 days” value [4] was 38.4%. The tolerability [5] was “well-tolerated”.
